Reference: the DeepSol protein solubility set

Test: soluble on expression in E. coli; label from the status in PepcDB or PDB records
With “MGSDKIHHHHHHMDTSSREHDLVIYGATGFVGRLIAVYIAEHAPAGMRVGLAGRSNSRLEAVRAELPAAAHGWALIEASSEDADSIAALAANTRVLFTTVGPYAKHGLPVVEACARAGTHYADLAGEVFFIREAIDCYDALARTSGARIVHSCGYDSVPSDLAVLLLHQAAEADGAGGLVEVQLEARARAGISGGTLESMRGQLDAMRSSTALRSLAADPYALSPDRTREPTTPQPPDAGPVRRSADGTWTAPFIMAPFNTRIVRRSNALQRWAYGRSLQYGEVMGVAPGPAGAVIPRAMALGLRAFTGAMAFPPTRKVLDRFLPAPGTGPSTSTQRAGWFHSQVTARTEDGQRYQAIAAGPGDPGYAATAVMAGETALALALDGDRLPTAKGSLTPATALGNVLIQRLRAAGHTYQVSKLA” the “soluble on expression in E. coli” value was “not soluble”. With “MTLTMGFIGFGKSANRYHLPYLKTRNNIKVKTIFVRQINEELAAPYEERGVYFTTDLDELLNDKEIQVVTICTPAHTHYELAKKVILAGKSVIVEKPFCDTVEHAKELLALGREKGVVVMPYQNRRFDGDFLAVKQVVEQGFLGDIIEIESHIDYFRPGSITHEAPKEEGSFYSLGIHTMDRMISLFGRPNTVTYDIRNNEVEGAVDNYFDVGLHYGNQLKIKLKTNHIVAKDYPRFIVHGTNGSFIKYGEDQQENDLKAGIMPESAGFGEDSPMYYGIAKYRNANGDWIEKQIKTPLGDYGRFYDAAYDTIVNGAPKLVKDEEAVTNIEILENGFAAPSPSVYKLEALHLNELEHHHHHH” the “soluble on expression in E. coli” value was “soluble”. With “MITPKVLSGFKDRLPKDAIQKAQLLAKVSVVFQSFGFVPIETPHLEYAQTLLPDASSDIQKEIYRFKDHGDRDVALRFDLTVPLARFVSLHHQTLGMPFKRYAIGNVFRGERAQKGRYREFTQCDFDFIGSESLVCDAEIIQVIVASLKALDLEDFCVSINHRKILNGICEYFGISQVNEALRIVDKLEKIGLNGVEEELKKECGLNSNTIKELLELIQIKQNDLSHAEFFEKIAYLKDYNENLKKGIQDLERLYQLLGDLQISQNLYKIDFSIARGLGYYTGIVYETTLNEMKSLGSVCSGGRYDHLTKNFSKENLQGVGASIGIDRLIVALSEMQLLDERSTQAKVLIACMHEEYFSYANRLAESLRQSGIFSEVYPEAQKIKKPFSYANHKGHEFVAVIGEEEFKSETLSLKNMHSGMQLNCLSFLKALEIIGENDEDL” the “soluble on expression in E. coli” value was “not soluble”. For “METKSLICTACPRGCRLSVKIENENISVSGNKCPKGLSYGKTEAVCPMRILTSTIASSVEGFPRLPVKTSVEVPLKNFSEYMHLIRKLKADSSKMPGDIIVKNFAESGADLIAAGGSLLEHHHHHH”, the “soluble on expression in E. coli” value was “soluble”. In the case of “MGSDKIHHHHHHMKQDRRKLFVLDTNVLLHEPLAIYSFKEHDVVIPMTVLEELDNIKDRKHDISRDARVAIRALEDILGGPTTPEQILKGVPLPSREGHLDVAGSLSIFPDHQVDFIAGALPGDNNDNLIINVALHLQKVHKPRTVVLVTKDINMRLKAKGAGIEKVEDYRTDQLIDDIRFLAKGFYQFEGDFWSKLDKVTTERQGKHTIHHVPIAALGKEAFYLNQYLLDDEANFCGRITGKTDTQLDIIDLGRDRLNHIEAWGIKPKNIYQGMALNALLDPEIDLVILTGPAGCGKTLLAIAAALELVVERKRYDKIIVTRNTPEIAESIGFLPGTEEEKMAPWLAAITDTLEVLHKNDVNPSGSMNYIMEKANIQFKSINFMRGRSIQNSVVLLDECQNLTASQIKTMITRMGEGTKLICCGNLSQIDSTYLTAVTSGLTYIVERFKDFEGSANVYLNGVVRSRLAEYAEEHL”, the “soluble on expression in E. coli” value is reported as “not soluble”. With “MTTWLYAGVDGGGTGCRARIYQANGTPLGQGHGGRANLLLGVENVRQSVDNAIAQALKHSGLSPDDVSRLKVGLALASAEHRTAYDTFLALPHPYATQVLNTDALGACLAVNQGKDAGVVIAGTGSCGLAWQNQTITAYGGHEFPISDQGSGARLGLAALQHTHDVLQGWRAPSALSQSIDDFFCASAAHALAANTLDALQTFSQQAKPGDYAQFARHVFDCAQQDDAVSHALLAQTASEICLLLAAVARHASPRLSLMGSIGLHIRPWLPDEWQSQLAVPMGDALDGARLIACHDYALYSHPLLEHHHHHH” the “soluble on expression in E. coli” value was “not soluble”. In the case of “MAHHHHHHMLRGKSGLTASSSLEGGSEFSERIGNTLSSFLSESASLEVIGNELADNIANEIVGSLQNDSASFLQSEFDVKAQLKATAKKVLTEALKAALEPTEKIVASTIKPPRIKEDIYFLLSPVVRSLFNKVEDVLHKPVSDDIWNYESRGSSSEEEDEVDSDEDFLD”, the “soluble on expression in E. coli” value is reported as “soluble”. With “MRGSHHHHHHTDPALRAKPENKLPVLDLISAEMKTVVNTLQPDLPPWPATGTIAEQRQYYTLERRFWNAGAPEMATRAYMVPTKYGQVETRLFCPQPDSPATLFYLHGGGFILGNLDTHDRIMRLLASYSQCTVIGIDYTLSPEARFPQAIEEIVAACCYFHQQAEDYQINMSRIGFAGDSAGAMLALASALWLRDKQIDCGKVAGVLLWYGLYGLRDSVTRRLLGGVWDGLTQQDLQMYEEAYLSNDADRESPYYCLFNNDLTREVPPCFIAGAEFDPLLDDSRLLYQTLAAHQQPCEFKLYPGTLHAFLHYSRMMKTADEALRDGAQFFTAQLGLCGR” the “soluble on expression in E. coli” value was “soluble”. In the case of “MDISMKQSKRNLWWSVCAGLLFCSWGCSSQVSDKPVTLETLLDEMVSVEEQALYPVPSYTCRQESSYDRASVSPDSAGWFANSDGFGIKRVDTVAGRIEKVMFDEVGPGAITRIWITTIDKRGTWRFYFDGSDQPGWIIPAYDLMRINVPGLGKGMLQAHTSYTPEGKGGNTLFLPIPYARGCKVTFEDEPGVNPTPKYYHINFRKYPEGTQVETFSKEVVERAAQKIAEVDNRLLQPVAGRKGEILREEKSILPSDSLVIPLPAGENAVYEVKFNIRIDNPEQYAQLMRELVFSAGFDGKQTVWVPLSDFSGGGMGAPKVDSWYLTSDGKGNISSRWLMPYQKDGVLKVLNLSSRSVAATMEVNVAPLKWNKDRSLYFYASWRQENGIYIHDKPEEADQCVEWNFATLKGRGVYKGDLLSLYNHAPLWYGEGDEKIWVDDDTFPSHFGTGTEDYYNSSWAPVVPFYTPFGGAPRADLESSHGYNAFYRTRHLDGIPFNKSFKFDIEMLGWKRGEADYATTIYWYGDPEAQVFGTSGIEEARRQLLPAVEASADLEHHHHHH”, the “soluble on expression in E. coli” value is reported as “soluble”. With “MGSDKIHHHHHHPEKKVATSVPAPQKMDGEQLFEDMQLGGVVNFLAFRQAVAGYNLIKQKSKSILTLIDFTKPSTEKRLFVFDMEQKKMLYSSVVSHGKNSGENYATSFSNEVGSYKSSLGFYLTGNTYQGRNGYSLLLDGLEKGINDRARERAIVVHGAAYANPSVCKSGRLGRSFGCPALPQALTKPIINTIKGGSVLFIYANNKEYMAKSSILPNQTSQELFTEACESEQTVSVHL” the “soluble on expression in E. coli” value was “not soluble”. In the case of “MSTRKLNKVMVQPVNLIFRYLQNRTRVQIWLYEDVTHRLEGYIIGFDEFMNVVFDEAEEVNMKTKGRNKIGRILLKGDNITLIHAAQQEA”, the “soluble on expression in E. coli” value is reported as “not soluble”. For “MGSDKIHHHHHHMKISTHELIAVVSQFNPWWRGESIQDLPTWHRAAYQELELWLIKPPVPRAIFLSGARQIGKTTLLLQAIDKLLKEGVKPGNILYVTFDHPLIKMSDIDAVLEAWREREPKTGDLEYIFIDEAQFMRSWGTWIKHQVDFSKSRRIFFTGSATPIIEADQESGVGRWHTIRLTTLSFYEYLQIKKIDLPQLPTVKTLRELFEWPQQEFYKVKELAVHYVGHFHEYLLRGGFPQTAQVENITQAQRLLREDIIDKVLKRDMTALFGVRRILELEQTFLYLCMHDGGLLDMTDLCSNLEVKRPTIQNYIFLLEATNLIYRLPPFGYGKDILRAKYKIYLADAAIAPAVLLKDKSILDDPESLGIATETAVFKHLFARYYSQNVRFSYWRGTKDHEVDVVAQIGDQIIPFEVKYRSQHTNAKALKGLLELCKKKSIAHGYVVTKSLDDFGIMKALPEIKTNIMQIPAPLLCYWMGESELRQTFGV”, the “soluble on expression in E. coli” value was “not soluble”. For “MIEVGDLKKGMFIIYDGEIYRVLEASKHFMGRGSGLIRTKLKNVKTGFVREVNFPSGEKVQEAELSFRKAQYLYRDGDHYYFMTLDDYEQYALSEEEIGDAKYYLVENMEVDLVFHEGTPIGIELPTTVELTVVETEPSFKGDTVSGGGKPAVLETGLKITVPYFIEVGDKIKVDTRTGEYVGRA”, the “soluble on expression in E. coli” value was “soluble”. With “MIPGTIPTSYLVPTADTEATGVVSLSARAAMLNNMDSAPLSNGGDVDLYDAFYQRLLALPESASSETLKDSIYQEMNAFKDPNSGDSAFVSFEQQTAMLQNMLAKVEPGTHLYEALNGVLVGSMNAQSQMTSWMQEIILSGGENKEAIDW” the “soluble on expression in E. coli” value was “not soluble”. For “MGSDKIHHHHHHMKIALIIENSQAAKNAVVHEALTTVAEPLGHKVFNYGMYTAEDKASLTYVMNGLLAGILLNSGAADFVVTGCGTGMGSMLAANAMPGVFCGLVIDPTDAFLFGQINDGNAISMPYSKGFGWAAELNLQDVYRKLFDGERGLGYPRERAEIMRKNRGILRELKDASCRDMLTVLKTVDQDLLRAAIAGEKFAELFYPNCKDDAIANYLRSLDA”, the “soluble on expression in E. coli” value was “not soluble”. With “MKTRITELLKIDYPIFQGGMAWVADGDLAGAVSKAGGLGIIGGGNAPKEVVKANIDKIKSLTDKPFGVNIMLLSPFVEDIVDLVIEEGVKVVTTGAGNPSKYMERFHEAGIIVIPVVPSVALAKRMEKIGADAVIAEGMEAGGHIGKLTTMTLVRQVATAISIPVIAAGGIADGEGAAAGFMLGAEAVQVGTRFVVAKESNAHPNYKEKILKARDIDTTISAQHFGHAVRAIKNQLTRDFELAEKDAFKQEDPDLEIFEQMGAGALAKAVVHGDVDGGSVMAGQIAGLVSKEETAEEILKDLYYGAAKKIQEEASRWTGVVRND” the “soluble on expression in E. coli” value was “not soluble”. In the case of “GPGMASSPRPKMDAILTEAIKACFQKSGASVVAIRKYIIHKYPSLELERRGYLLKQALKRELNRGVIKQVKGKGASGSFVVVQKSRKT”, the “soluble on expression in E. coli” value is reported as “soluble”. With “MSLNGEGAVPTLVGYGADTAIETSRRTSRPLAAPVVRKLAKELAVDLAALQRGSGAGGVITRADVLAAARGGVGAGPDVRPVHGVHARMAEKMTLSHKEIPTAKASVEVICAELLRLRDRFVSAAPEITPFALTLRLLVIALKHNVILNSTWVDSGEGPQVHVHRGVHLGFGAATERGLLVPVVTDAQDKNTRELASRVAELITGAREGTLTPAELRGSTFTVSNFGALGVDDGVPVINHPEAAILGLGAIKPRPVVVGGEVVARPTMTLTCVFDHRVVDGAQVAQFMCELRDLIESPETALLDLEGHHHHHH” the “soluble on expression in E. coli” value was “soluble”. In the case of “RDSSDDWEIPDGQITVGQRIGSGSFGTVYKGKWHGDVAVKMLNVTAPTPQQLQAFKNEVGVLRKTRHVNILLFMGYSTKPQLAIVTQWCEGSSLYHHLHASETKFEMKKLIDIARQTARGMDYLHAKSIIHRDLKSNNIFLHEDNTVKIGDFGLATVKSRWSGSHQFEQLSGSILWMAPEVIRMQDSNPYSFQSDVYAFGIVLYELMTGQLPYSNINNRDQIIEMVGRGSLSPDLSKVRSNCPKRMKRLMAECLKKKRDERPSFPRILAEIEELARELSG”, the “soluble on expression in E. coli” value is reported as “soluble”. In the case of “MMPAHETYDVIVVGAGAGGMTAAAVAAAEGLSVLVIEKTAFVGGTTAWSDGMVWIPANPKMKAAGLSDSVADAVQYLSSTVPEPANAGLRAAFLARGPEAVTYLEAKTEVRFLPVKTCPDYYPERLGATSGGRALEPVAFDGTRLGRAFARLRPPLPEFTLFGGMMVNRLDIPHLRRIGKSLRSTLRAARLVSEYMMQRLRSPRGTTLHLGNALAARLYASLLARQGEILFSADVEDLSMQGDRVSGVVIRHGSRDRAIAARRGVVLATGGFSHDAALRKRFFPPAAGFVSATSPSGTGDGLRLAATAGAALNTEATSPAYWVPASLFRRADGSRGVFPHTVTDRAKPGVIAVNAAGRRFVNEALSYHEFVLAMLRDGHGEPDRPFYLICDRQFLWSYGLGRIKPFTRNFRRYVASGELVEAPDITQLAAKIGIKPSVLTATIAAYNIDAKEGRDPEFGRGTTIYQRHLGDISHKPNPCVAPILRAPYFALRIYPADLGTAIGMKVDAQARVLRGDGTPIAGLYACGNDMGSIMNGNCPGPGITLGPALTFGYIAGRHLAEGGVTRELAKEQMLEHHHHHH”, the “soluble on expression in E. coli” value is reported as “not soluble”.
